Among the data in publication PMC4125116 are β-galactosidase activity (Miller units) values, retold here.

In assay [1] the target is BldM fused to the T18 or the T25 fragment of adenylate cyclase (BACTH) (Streptomyces venezuelae). In words: two-hybrid; bacterial two-hybrid (BACTH), T18 (pUT18) and T25 (pKT25) fusions in E. coli BTH101; transformants grown at 30°C for two days; β-galactosidase assays of four independent clones.
Assay [2] addresses WhiI fused to the T18 or the T25 fragment of adenylate cyclase (BACTH) (Streptomyces venezuelae). The assay is described as above.

Consider “BldM fused to the T18 or the T25 fragment of adenylate cyclase (BACTH) (natural protein)”, for which the results for the β-galactosidase activity (Miller units) in assay [1] and in assay [2] were 750 Miller units and 3000 Miller units, respectively.

In the case of “WhiI fused to the T18 or the T25 fragment of adenylate cyclase (BACTH) (natural protein)”, the β-galactosidase activity (Miller units) in assay [1] was determined as 3000 Miller units.
